Measured values published in patent US20140037626A1, “Metal Abstraction Peptide With Release of Metal” (Echogen, Inc., priority 2012, published 2014).
Ends that are not written are not given here.

Experiments:
[1] = pH-dependent release of nickel from MAP peptides by absorption spectroscopy; type: physicochemical; conditions: FIG. 9; intensity at 415 nm with decreasing pH
Description: The loss of absorbance intensity corresponds to loss of metal from the complex, as the absorption features that are observed for Ni-MAP are due to ligand to metal charge transfer (LMCT) bands and d to d transitions. By monitoring the intensity of one specific peak (415 nm for the pentapteptide) with decreasing pH, the percent of the complex remaining at each pH unit was calculated and plotted (FIG. 9).
pH release experiments were then performed (FIG. 16), and release curves were prepared for each of the six peptides (FIG. 17).

[2] = pH-dependent release of platinum from MAP peptides (absorption, NMR, MS); type: physicochemical; conditions: low pH (pH 2.47 with excess ammonium chloride in FIG. 10)
Description: Because Pt is bound to ammonia and chloride ligands in the common inorganic complex cisplatin, the release experiment was also performed in the presence of excess ammonium chloride. […] Additionally, ^1H NMR of the GGNCC (SEQ ID NO.:1), and Pt-GGNCC (SEQ ID NO.:1) at low pH were all performed.
MS data was obtained at low pH when solvent (DMSO) was added to the peptide-metal complex before dropping the pH, to keep some of the species that result from metal release soluble. Although a small amount of a yellow precipitate formed, the peptide returned to the apo state and remained in solution as determined by MS (FIG. 12). By adding DMSO to the solution, a similar release experiment was performed using absorption spectroscopy. […] The loss of absorbance intensity corresponded to loss of metal from the complex. The loss of intensity was monitored at 315 nm, as this is a significant, yet unique, feature in the Pt-NCC spectral profile, and pH dependent release curve was prepared (FIG. 13).

Substance	pH range in which pH-dependent release of nickel occurs rapidly [1]	precipitation of the Pt-peptide complex at low pH [2]
GNNCC: nickel complex of the pentapeptide GNNCC (SEQ ID NO.:2) (cysteine pairing not given here; also: nickel complex)	6-7 pH	–
Pt-GGNCC: platinum complex of the pentapeptide GGNCC (SEQ ID NO.:1) (cysteine pairing not given here; also: platinum complex)	–	Precipitation occurred
